From FireProtDB (doi:10.1093/hmg/ddv370) come the findings set out here.

B1: Guanylyl cyclase-activating protein 1, P43080 (parent)
chain: MGNVMEGKSVEELSSTECHQWYKKFMTECPSGQLTLYEFRQFFGLKNLSPSASQYVEQMFETFDFNKDGYIDFMEYVAALSLVLKGKVEQKLRWYFKLYDVDGNGCIDRDELLTIIQAIRAINPCSDTTMTAEEFTDTVFSKIDVNGDGELSLEEFIEGVQKDQMLLDTLTRSLDLTRIVRRLQNGEQDEEGADEAAEAAG

The first data set covers variants of B1. As to conditions: Homo sapiens; pH 7.5; Thermal; CD; Tris-HCl; KCl; transition: 2; whole UniProt chain shown.
In the case of MGNVMEGKSVEELSSTECHQWYKKFMTECPSGQLTLYEFRQFFGLKNLSPSASQYVEQMFETFDFNKDGYIDFMEYVAALSLVFKGKVEQKLRWYFKLYDVDGNGCIDRDELLTIIQAIRAINPCSDTTMTAEEFTDTVFSKIDVNGDGELSLEEFIEGVQKDQMLLDTLTRSLDLTRIVRRLQNGEQDEEGADEAAEAAG [L84F], the “change of melting temperature, mutant - wild type (higher = more stable)” value (shortened to “change of melting temperature, mutant”) is -9.3 °C. Consider MGNVMEGKSVEELSSTECHQWYKKFMTECPSGQLTLYEFRQFFGLKNLSPSASQYVEQMFETFDFNKDGYIDFMEYVAALSLVLKGKVEQKLRWYFKLYDVDGNGCTDRDELLTIIQAIRAINPCSDTTMTAEEFTDTVFSKIDVNGDGELSLEEFIEGVQKDQMLLDTLTRSLDLTRIVRRLQNGEQDEEGADEAAEAAG [I107T], for which the “change of melting temperature, mutant” value was -8.1 °C.

The same data set, now with this note: Homo sapiens; pH 7.5; Thermal; CD; Tris-HCl; KCl; transition: 3; whole UniProt chain shown.
For MGNVMEGKSVEELSSTECHQWYKKFMTECPSGQLTLYEFRQFFGLKNLSPSASQYVEQMFETFDFNKDGYIDFMEYVAALSLVLKGKVEQKLRWYFKLYDVDGNGCTDRDELLTIIQAIRAINPCSDTTMTAEEFTDTVFSKIDVNGDGELSLEEFIEGVQKDQMLLDTLTRSLDLTRIVRRLQNGEQDEEGADEAAEAAG [I107T], the “change of melting temperature, mutant” value was -8.1 °C.
